In assay [1] the target is human CD40 (human) (UniProt P25942). As to the kind of experiment: cell-based or functional assay.
Assay [2] concerns the target human OX40 ligand (OX40L) (human) (UniProt P23510). As to the kind of experiment: cell-based or functional assay.

Where “and” joins values, the source holds several entries; their conditions need not be identical. Equal entries are not always repeated.

Sequence of UniProt P23510 (P23510 whole entry): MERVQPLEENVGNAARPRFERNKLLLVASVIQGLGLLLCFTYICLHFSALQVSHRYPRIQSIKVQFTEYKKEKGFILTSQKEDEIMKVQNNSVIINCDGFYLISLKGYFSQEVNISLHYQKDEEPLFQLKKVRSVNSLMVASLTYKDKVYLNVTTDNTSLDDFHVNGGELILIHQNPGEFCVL
Sequence of UniProt P25942 (P25942 21-277): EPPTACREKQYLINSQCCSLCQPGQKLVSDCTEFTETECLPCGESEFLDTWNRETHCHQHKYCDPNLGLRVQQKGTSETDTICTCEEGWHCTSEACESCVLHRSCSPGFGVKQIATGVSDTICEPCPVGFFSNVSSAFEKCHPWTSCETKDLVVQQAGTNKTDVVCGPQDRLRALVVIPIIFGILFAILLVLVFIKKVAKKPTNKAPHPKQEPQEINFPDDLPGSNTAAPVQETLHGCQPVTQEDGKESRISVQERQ

Regarding “recombinant human soluble CD40L (from UniProt P29965 116-261) (ligand)”, the IL-6 production by HASM cells (ELISA), 1 ug/ml in assay [1] is 2 fold and 3 fold.

B1: Soluble human recombinant OX40 [CD134]:Fc (Fc fusion, UniProt P43489 29-220, looked up, not shown: a dimerising Fc or GST)
chain: LHCVGDTYPSNDRCCHECRPGNGMVSRCSRSQNTVCRPCGPGFYNDVVSSKPCKPCTWCNLRSGSERKQLCTATQDTVCRCRAGTQPLDSYKPGVDCAPCPPGHFSPGDNQACKPWTNCTLAGKHTLQPASNSSDAICEDRDPPATQPQETQGPPARPITVQPTEAWPRTSQGPSTRPVEVPGGRAVAAILG
For B1, in assay [2], the IL-6 production by HASM cells (ELISA), 1 ug/ml is 2 fold and 3 fold; the PKCβ2 in membrane fraction (Western blot), HASM cells is 3 fold.

For the origin of these results see patent US20040009174A1.
